Data as given in patent publication US8703915B2, “Mutant proteins and methods for producing them” (Heptares Therapeutics Limited, priority 2009, dated 2014).
Positions count from the first letter of the chain named. Names and notes keep the numbering of the source.

How the values were obtained:
M4 muscarinic receptor [1] = assay: Thermostability of M4 muscarinic receptor bound to antagonist NMS; assay type: physicochemical, human; details: bound to antagonist NMS
Procedure: (§1) In order to stabilise the M4 muscarinic receptors in antagonist conformation, a systematic alanine-scan was performed to identify mutations that stabilise receptors bound to the muscarinic antagonist, NMS. […] However, L71A (three residues N-terminal of the L2.46) was identified as a stabilising mutation. This mutation increases the Tm of this receptor by about 2° C. (FIG. 8a).
(§2) A2AR-(2-316) expression was carried out by using the pRG/III-hs-MBP E. coli expression vector and DH5α cells. Cells were grown at 37° C. in 2 L flasks containing 500 mL of 2×TY medium supplemented with Ampicillin (100 μg/mL) and glucose (0.2% w/v). At OD600≈0.7, IPTG and theophylline were added at final concentrations respectively of 0.5 mM and 100 μM, and the temperature was reduced to 20° C. After 22 to 24 hours, cells were harvested in aliquots of 14 mL, centrifuged for 30 min and stored at −20° C. Both 5HT2C and M4 receptors were transiently expressed in HEK293T cells using GeneJuice transfection reagent used according to the manufacturers guidelines.
(§3) Transiently transfected mammalian cells expressing M4 were harvested about 40 hours post transfection and the receptors were solubilised in 50 mM Tris pH 7.5/250 mM NaCl/1% DDM/EDTA free protease inhibitor mix for 1 hour rotating at 4° C. The solubilised lysate was then cleared by centrifugation at 13000 rpm for 15 minutes at 4° C. The solubilised receptors were then purified on Ni-NTA beads and eluted with 100 mM histidine. The eluted receptor was used in radioligand binding assay. Thermostability of M4 was measured using 25 μL of purified receptor mixed with 95 μL of 12 nM [^3H]-NMS (final concentration of 10 nM). The sample was incubated for 60 min at 4° C., then 30 min at the specified temperature and then 30 min at 4° C. Receptor bound and free radioligand were separated using a 96-well plate gel filtration assay.

M4 muscarinic receptor [2] = biological target: T1, M4 muscarinic receptor (Homo sapiens, UniProt P08173, L71A); assay: as above; assay type: physicochemical; details: antagonist NMS bound, versus parent M4
T1 construct: made in house; host or cells: HEK293T cells, transient
T1 sequence (P08173 1-479 L71A): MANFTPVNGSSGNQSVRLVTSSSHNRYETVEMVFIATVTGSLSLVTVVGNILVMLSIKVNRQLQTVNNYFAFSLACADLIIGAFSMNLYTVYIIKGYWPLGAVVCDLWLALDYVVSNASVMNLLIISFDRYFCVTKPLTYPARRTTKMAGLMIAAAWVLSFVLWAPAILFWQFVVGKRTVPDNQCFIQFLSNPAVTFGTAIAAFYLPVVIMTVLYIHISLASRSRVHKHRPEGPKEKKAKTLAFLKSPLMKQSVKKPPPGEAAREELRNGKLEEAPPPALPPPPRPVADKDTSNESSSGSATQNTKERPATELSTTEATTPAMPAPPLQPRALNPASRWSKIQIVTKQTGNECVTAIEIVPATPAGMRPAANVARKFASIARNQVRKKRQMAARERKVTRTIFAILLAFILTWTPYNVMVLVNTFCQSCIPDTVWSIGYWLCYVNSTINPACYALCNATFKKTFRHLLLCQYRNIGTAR
Procedure: as §1, §2, §3

[3] = biological target: neurotensin receptor NTS1 (Rattus norvegicus, UniProt P20789, Y369A); assay: Two point thermostability assay, neurotensin agonist binding to NTS1 alanine scan mutants; assay type: physicochemical
Source text: An alanine scan has been carried out on the rat neurotensin receptor NTS1 in the presence of the agonist neurotensin in order to stabilise the agonist conformation.

5HT2C receptor [4] = biological target: T2, 5HT2C receptor (Homo sapiens, UniProt P28335, L95A); assay: Thermostability of 5HT2C receptor bound to antagonist mesulergine; assay type: physicochemical; details: antagonist bound 5HT2C, data not shown
T2 construct: made in house
T2 sequence (P28335 33-458 L95A): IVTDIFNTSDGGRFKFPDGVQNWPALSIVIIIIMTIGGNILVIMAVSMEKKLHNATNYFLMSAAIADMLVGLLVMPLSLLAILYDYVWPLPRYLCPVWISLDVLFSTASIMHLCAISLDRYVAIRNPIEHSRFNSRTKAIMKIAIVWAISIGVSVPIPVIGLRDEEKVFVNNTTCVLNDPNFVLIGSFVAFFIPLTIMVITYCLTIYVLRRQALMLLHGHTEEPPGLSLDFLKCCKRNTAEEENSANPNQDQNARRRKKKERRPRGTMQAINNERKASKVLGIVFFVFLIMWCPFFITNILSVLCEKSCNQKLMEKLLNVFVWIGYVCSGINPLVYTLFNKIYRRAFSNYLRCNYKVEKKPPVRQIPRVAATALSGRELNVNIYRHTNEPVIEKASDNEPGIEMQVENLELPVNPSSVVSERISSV
Procedure: as §2
(§4) 5HT2C receptor was solubilised from transiently transfected mammalian cells in 50 mM Hepes pH7.4, 100 mM KCl, 0.5% DDM (0.1% CHS/0.6% CHAPS was added to cells for SCH23390 agonist assay). Tm analysis was performed directly on the soluble lysate. The Tm was determined by incubating 108 μl of the lysate with [N^6-methyl-^3H]Mesulergine radioligand at a final concentration of 17 nM or 9 nM [^3H]SCH23390 for one hour at 4° C. The six ligand incubations are then incubated at six different temperatures from 25° C. to 55° C., for thirty minutes. Receptor bound and free radioligand were separated using a 96-well plate gel filtration assay.

5HT2C receptor [5] = assay: Thermostability of 5HT2C receptor bound to agonist SCH23390; assay type: physicochemical, human
Procedure: An alanine scan has been carried out on the 5HT2C receptor in the presence of the agonist SCH23390 in order to stabilise the agonist conformation. Similar to A2A, it appears that mutating L2.46 (L95 in 5HT2C) to alanine confers significant stability on this receptor increasing the Tm of the receptor by 5.4° C. (FIG. 7). It is notable that in addition to L95, mutating the nearby M93 (two residues away from L2.46) to alanine also confers stability to the agonist bound receptor, resulting in an increase of 2.9° C.
as §2, §4
5HT2C receptor was solubilised from transiently transfected mammalian cells about 40 hours post transfection, in 50 mM Hepes pH7.4/100 mM KCl/0.5% DDM/(0.1% CHS/0.6% CHAPS was added to cells for SCH23390 agonist assay) and protease inhibitor. Cell lysates were left at 4° C. on a rotator and then cleared by centrifugation at 13,200 rpm for 20 minutes at 4° C. Thermostability analysis was performed directly on the soluble lysate. The Tm was determined by incubating 108 μl of the lysate with [N^6-methyl-^3H]Mesulergine radioligand at a final concentration of 17 nM or 9 nM [^3H]SCH23390 for one hour at 4° C. The six ligand incubations are then incubated at six different temperatures from 25° C. to 55° C., for thirty minutes. Receptor bound and free radioligand were separated using G25 Sephadex spin columns.

5HT2C receptor [6] = assay: Thermostability of 5HT2C receptor bound to antagonist mesulergine; assay type: physicochemical, human; details: bound to antagonist (mesulergine)
Procedure: as §2, §4

5HT2C receptor [7] = biological target: T3, 5HT2C receptor (Homo sapiens, UniProt P28335, S94A); assay: as above; assay type: physicochemical; details: antagonist bound, versus parent 5HT2C
T3 construct: made in house
T3 sequence (P28335 33-458 S94A): T2 sequence (P28335 33-458 L95A) with S62A, A63L
Procedure: as §2, §4

A2A receptor = biological target: T4, A2A receptor (Homo sapiens, UniProt P29274, N284A); assay: Two point thermostability measurement, NECA binding to A2A alanine scan mutants in DDM; assay type: physicochemical; details: 4° C. versus destabilising temperature such as 30° C.
T4 construct: A2AR-(2-316) expression was carried out by using the pRG/III-hs-MBP E. coli expression vector; MBP (named only in the vector name); made in house
Procedure: In the A2A agonist-bound study the effect of mutations from the alanine scan were determined initially by two point thermostability measurements. In these experiments, the wild type receptors and receptors containing single mutants were solubilised in the detergent DDM and the amount of NECA binding retained at 4° C. and at a destabilising temperature such as 30° C. was determined. A>10% increase in agonist binding to the mutant receptor compared to the wild type receptor at the destabilising temperature is considered to be significant and is indicative of an increase in thermostability.

B1: L71A: M4 muscarinic receptor mutant L71A, three residues N-terminal of the L2.46 (protein, UniProt P08173 1-479, looked up, variant L71A)
Muscarinic acetylcholine …: T1 sequence (P08173 1-479 L71A)
Tm (M4 muscarinic receptor [1]): 36.0 °C | increase of Tm (M4 muscarinic receptor [2]): about 2 °C

B2: Y369: rat neurotensin receptor NTS1 mutant, residue 7.53 (Y369) to alanine (protein, listed as Rattus norvegicus)
chain: MHLNSSVPQGTPGEPDAQPFSGPQSEMEATFLALSLSNGSGNTSESDTAGPNSDLDVNTDIYSKVLVTAIYLALFVVGTVGNSVTAFTLARKKSLQSLQSTVHYHLGSLALSDLLILLLAMPVELYNFIWVHHPWAFGDAGCRGYYFLRDACTYATALNVASLSVERYLAICHPFKAKTLMSRSRTKKFISAIWLASALLAIPMLFTMGLQNRSGDGTHPGGLVCTPIVDTATVKVVIQVNTFMSFLFPMLVISILNTVIANKLTVMVHQAAEQGRVCTVGTHNGLEHSTFNMTIEPGRVQALRHGVLVLRAVVIAFVVCWLPYHVRRLMFCYISDEQWTTFLFDFYHYFYMLTNALFYVSSAINPILANLVSANFRQVFLSTLACLCPGWRHRRKKRPTFSRKPNSMSSNHAFSTSATRETLY
thermostability (agonist binding at the destabilising temperature compared to wild type) [3]: increased agonist binding compared to the wild type receptor

B3: L95A: 5HT2C receptor mutant, L2.46 (L95 in 5HT2C) to alanine (protein, UniProt P28335 33-458, looked up, variant L95A)
5-hydroxytryptamine receptor …: T2 sequence (P28335 33-458 L95A)
effect on thermal stability (5HT2C receptor [4]): did not confer any stability | increase of Tm (5HT2C receptor [5]; agonist SCH23390 bound, versus parent 5HT2C): 5.4 °C | Tm (5HT2C receptor [5]; bound to agonist SCH23390): 48.8 °C

B4: S94A: 5HT2C receptor mutant, S94 to alanine (protein, UniProt P28335 33-458, looked up, variant S94A)
5-hydroxytryptamine receptor …: T2 sequence (P28335 33-458 L95A) with S62A, A63L
Tm (5HT2C receptor [6]): 48.9 °C | increase of Tm (5HT2C receptor [7]): 11.76 °C

B5: N284: adenosine A2A receptor alanine scan mutant of Asparagine 284 (protein, listed as Homo sapiens)
chain: MPIMGSSVYITVELAIAVLAILGNVLVCWAVWLNSNLQNVTNYFVVSLAAADIAVGVLAIPFAITISTGFCAACHGCLFIACFVLVLTQSSIFSLLAIAIDRYIAIRIPLRYNGLVTGTRAKGIIAICWVLSFAIGLTPMLGWNNCGQPKEGKNHSQGCGEGQVACLFEDVVPMNYMVYFNFFACVLVPLLLMLGVYLRIFLAARRQLKQMESQPLPGERARSTLQKEVHAAKSLAIIVGLFALCWLPLHIINCFTFFCPDCSHAPLWLMYLAIVLSHTNSVVAPFIYAYRIREFRQTFRKIIRSHVLRQQEPFKAAGTSARVLAAHGSDGEQVSLRLNGHPPGVWANGSAPHPERRPNGYALGLVSGGSAQESQGNTGLPDVELLSHELKGVCPEPPGLDDPLAQDGAGVS
thermostability (agonist binding at the destabilising temperature compared to wild type) (A2A receptor): increased thermostability
